Results on seven molecules are retold here after paper PMC9745668 (ACS chemical biology, 2021).

A word on the Km: it is the substrate concentration at which the rate is half of its maximum. As a reminder, the kcat is the number of substrate molecules converted per active site and unit of time at saturation. In general, kcat/Km refers to the second-order rate constant that governs catalysis at low substrate concentration.

Where a chain is given by its changes, count along the chain named. Names and notes keep the numbering of the source.

The target in series [1] is T1, IPK from Candidatus methanomethylophilus alvus (CMA) (Methanomethylophilus alvi, UniProt M9SEQ1).
T1 sequence (M9SEQ1 1-259): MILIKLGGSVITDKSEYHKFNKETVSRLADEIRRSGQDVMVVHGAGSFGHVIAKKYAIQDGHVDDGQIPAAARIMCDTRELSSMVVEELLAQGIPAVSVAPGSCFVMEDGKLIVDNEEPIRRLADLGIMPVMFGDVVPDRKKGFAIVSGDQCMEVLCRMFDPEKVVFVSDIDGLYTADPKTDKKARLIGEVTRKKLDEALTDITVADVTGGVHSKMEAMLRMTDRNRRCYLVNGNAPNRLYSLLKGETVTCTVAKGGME
The series can be described thus: X-ray crystal structure, […] Å. To be noted: alkyl-P site, monomer A, partial occupancy with IP. It is filed as binding.

Substrate in series [2]: C=C(C)CCOP(=O)(O)O
The series can be described thus: PK-LDH coupled assay, A340. It is filed as biochemical, Methanomethylophilus alvi. To be noted: 2 mM ATP, 5 mM MgCl2, 25 mM Tris pH 7.8, 37 °C.

Substrate in series [3]: Cc1ccc(COP(=O)(O)O)cc1
The series can be described thus: PK-LDH coupled assay, A340. It is filed as biochemical, Methanomethylophilus alvi. The conditions noted are these: 2 mM ATP, 5 mM MgCl2, 25 mM Tris pH 7.8, 37 °C.

Substrate in series [4]: O=P(O)(O)OCc1ccccc1
The series can be described thus: PK-LDH coupled assay, A340. To be noted: 2 mM ATP, 5 mM MgCl2, 25 mM Tris pH 7.8, 37 °C. It is filed as biochemical, Methanomethylophilus alvi.

`C=C(C)CCOP(=O)(O)OP(=O)(O)O` [IPP]: in series [1], the “X-ray crystal structure, 2.5 Å” value is “electron density for both pairs of reagents (IP/ATP and IPP/ADP) can be modeled”.

B1: IPK from Candidatus methanomethylophilus alvus (CMA) (Candidatus Methanomethylophilus alvi Mx1201; I74A) (protein)
chain: T1 sequence (M9SEQ1 1-259) with I74A
For the molecule B1, in series [2], the Km amounted to 220 ± 20 µM, the kcat is 42 ± 2 s⁻¹ and the kcat/Km worked out at 190000 M⁻¹ s⁻¹. Also, in series [3], the Km amounted to 80 ± 20 µM, the kcat stood at 1.05 ± 0.07 s⁻¹ and the kcat/Km was 13000 M⁻¹ s⁻¹. Moreover, in series [4], the Km worked out at 110 ± 30 µM, the kcat was found to be 0.41 ± 0.02 s⁻¹ and the kcat/Km turned out to be 4000 M⁻¹ s⁻¹.

B2: IPK from Candidatus methanomethylophilus alvus (CMA) (Candidatus Methanomethylophilus alvi Mx1201; I74A/V208A) (protein)
chain: T1 sequence (M9SEQ1 1-259) with I74A, V208A
Regarding B2, in series [2], the Km was determined as 750 ± 80 µM, the kcat came out at 4.9 ± 0.2 s⁻¹ and the kcat/Km is 6500 M⁻¹ s⁻¹.

B3: IPK from Candidatus methanomethylophilus alvus (CMA) (Candidatus Methanomethylophilus alvi Mx1201; V208A) (protein)
chain: T1 sequence (M9SEQ1 1-259) with V208A
On to B3, for which, in series [2], the Km was 75 ± 10 µM, the kcat came to 5.4 ± 0.1 s⁻¹ and the kcat/Km turned out to be 72000 M⁻¹ s⁻¹.

B4: IPK from Candidatus methanomethylophilus alvus (CMA) (Candidatus Methanomethylophilus alvi Mx1201; T209A) (protein)
chain: T1 sequence (M9SEQ1 1-259) with T209A
On to B4, for which, in series [2], the Km was 50 ± 20 µM, the kcat came to 0.038 ± 0.002 s⁻¹ and the kcat/Km was found to be 800 M⁻¹ s⁻¹.

B5: IPK from Candidatus methanomethylophilus alvus (CMA) (Candidatus Methanomethylophilus alvi Mx1201; T209S) (protein)
chain: T1 sequence (M9SEQ1 1-259) with T209S
Regarding B5, in series [2], the Km was 37 ± 8 µM, the kcat came to 7.2 ± 0.3 s⁻¹ and the kcat/Km was 200000 M⁻¹ s⁻¹.

B6: IPK from Candidatus methanomethylophilus alvus (CMA) (Candidatus Methanomethylophilus alvi Mx1201; I146A) (protein)
chain: T1 sequence (M9SEQ1 1-259) with I146A
Take B6: in series [2], the Km was determined as 160 ± 20 µM, the kcat was found to be 68 ± 2 s⁻¹ and the kcat/Km worked out at 430000 M⁻¹ s⁻¹.
